Test [1] deals with Halo-FtsZ (FtsZ fused with HaloTag) (Caulobacter crescentus). The experiment in a line: single molecule tracking in live cells.
Test [2] concerns the target Halo-FtsZ^D216A (Caulobacter crescentus). The experiment in a line: single molecule tracking in live cells.

Two substances from article doi:10.1101/2023.09.08.556907 can be followed below.

On to “Halo-FtsZ (FtsZ fused with HaloTag) (natural protein)”, for which the monomer lifetime in test [1] turned out to be 12.2 s.
Substance Halo-FtsZ^D216A (natural protein) registered a monomer lifetime in test [2] of 16.2 s.
